{"source": "paper PMC3107735", "key": {"[1]": {"molecular_target": "alpha-thrombin (bovine, UniProt P00735;P00735 318-366;367-625)", "assay": "ITC"}, "[2]": {"molecular_target": "human thrombin (human, UniProt P00734;P00734 328-363;364-622)", "assay": "ITC"}}, "data": [{"binder": "GGTTGGTGTGGTTGG (structured_DNA)", "note": "[thrombin-binding DNA aptamer (15-mer, Bock et al.)]", "values": [{"measurement": "Kd", "setting": "[1]", "value": 111, "unit": "nM"}, {"measurement": "binding result", "setting": "[2]", "value": "binds"}]}]}
